In test [1] the target is T1, His-tagged KCNQ1 C-terminal fragment Q1C1 (349-480) (human, UniProt P51787 349-480).
T1 sequence (looked up): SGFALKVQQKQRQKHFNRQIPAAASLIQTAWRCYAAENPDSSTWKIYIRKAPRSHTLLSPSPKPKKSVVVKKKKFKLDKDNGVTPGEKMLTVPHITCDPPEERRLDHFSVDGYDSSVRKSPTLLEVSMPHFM
In words: SPR. (Surface plasmon resonance follows binding to a sensor surface in real time, without labels.)

The target of test [2] is T2, His-tagged KCNQ1 full-length C-terminus (Q1Cf, 349-676) (human, UniProt P51787 349-676).
T2 sequence (looked up): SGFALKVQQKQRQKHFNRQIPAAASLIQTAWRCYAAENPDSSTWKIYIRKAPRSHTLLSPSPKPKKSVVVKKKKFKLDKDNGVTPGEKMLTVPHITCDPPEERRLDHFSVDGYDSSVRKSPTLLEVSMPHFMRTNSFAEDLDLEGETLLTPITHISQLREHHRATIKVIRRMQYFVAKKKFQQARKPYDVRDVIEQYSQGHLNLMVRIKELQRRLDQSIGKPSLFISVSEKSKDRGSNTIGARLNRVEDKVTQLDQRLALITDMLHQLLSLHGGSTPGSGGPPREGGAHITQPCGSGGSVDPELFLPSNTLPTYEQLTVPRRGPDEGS
In words: SPR.

We go through 1 molecule from article PMC2888147 (The Biochemical journal, 2010).

B1: His-tagged KCNE1 C-terminus (E1C) (domain or fragment)
chain: not shown
By Kd is commonly meant the constant that tells how readily two partners part at equilibrium. With B1, the Kd in test [1] is 4.6 ± 1.4 µM; in test [2], 3.2 ± 0.7 µM.
